Data set [1] addresses T1, mTREX1 truncated (nuclease domain) (Mus musculus, UniProt Q91XB0 1-242).
T1 sequence: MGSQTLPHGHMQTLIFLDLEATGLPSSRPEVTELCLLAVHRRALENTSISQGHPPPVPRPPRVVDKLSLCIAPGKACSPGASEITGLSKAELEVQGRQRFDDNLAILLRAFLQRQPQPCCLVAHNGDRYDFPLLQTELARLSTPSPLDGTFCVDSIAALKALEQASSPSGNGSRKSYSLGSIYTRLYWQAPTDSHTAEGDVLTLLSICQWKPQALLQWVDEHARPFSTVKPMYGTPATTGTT
Nature of the data set: fluorescence anisotropy; 20 mM EDTA; Kd stated between those of dsDNA (139.4 nM) and DNA/RNA hybrid (102.0 nM); FA: 5 nM FAM nucleic acid, 120 mM NaCl, 20 mM Tris pH 7.0, 20 mM EDTA, room temperature, 30 min; RNase T EMSA: 120 mM NaCl, 50 mM EDTA, 20 mM buffer (truncated). The settings on record: protein: recombinant; tags: His-tag; chain copies: 2; label: 5'-FAM on strand 1; blunt.

The target in data set [2] is T1, mTREX1 truncated (nuclease domain). Nature of the data set: fluorescence anisotropy; 20 mM EDTA, no Mg2+; FA: 5 nM FAM nucleic acid, 120 mM NaCl, 20 mM Tris pH 7.0, 20 mM EDTA, room temperature, 30 min; RNase T EMSA: 120 mM NaCl, 50 mM EDTA, 20 mM buffer (truncated). The settings on record: protein: recombinant, tags: His-tag, chain copies: 2. On the technique in general: In fluorescence polarisation assays a small probe gives low polarisation when free and higher when bound to something large.

Data set [3] shares this target. In words: fluorescence anisotropy; 20 mM EDTA; extrapolated; legend prints uM, but nM fits the stated ~500-fold drop vs ssDNA20; FA: 5 nM FAM nucleic acid, 120 mM NaCl, 20 mM Tris pH 7.0, 20 mM EDTA, room temperature, 30 min; RNase T EMSA: 120 mM NaCl, 50 mM EDTA, 20 mM buffer (truncated). The conditions noted are these: protein: recombinant; tags: His-tag; chain copies: 2; label: 5'-FAM; single strand.

For data set [4] the target is unchanged. Nature of the data set: fluorescence anisotropy; 20 mM EDTA; not saturated, extrapolated (legend prints uM, text nM); FA: 5 nM FAM nucleic acid, 120 mM NaCl, 20 mM Tris pH 7.0, 20 mM EDTA, room temperature, 30 min; RNase T EMSA: 120 mM NaCl, 50 mM EDTA, 20 mM buffer (truncated). The conditions noted are these: protein: recombinant; tags: His-tag; chain copies: 2; label: 5'-FAM; single strand.

The source of these data is publication PMC10681709, “Molecular insight into the specific enzymatic properties of TREX1 revealing the diverse functions in processing RNA and DNA/RNA hybrids”.

B1: dsDNA19+RNA1 (ss19D1R/ssDNA20) (mixed)
DNA 1: ACTGGACAAATACTCCGAGG
DNA 2: CCTCGGAGTATTTGTCCAGT
modifications: strand 1 3'-terminal G20 is a ribonucleotide; rest DNA
As to B1, the binding result in data set [1] was “binds”.

B2: dsDNA20 (dsDNA)
DNA 1: ACTGGACAAATACTCCGAGG
DNA 2: CCTCGGAGTATTTGTCCAGT
The term Kd denotes the free concentration of one partner at which half of the binding sites on the other are occupied at equilibrium, for simple one-to-one binding. On to B2, for which the Kd in data set [2] (label: 5'-FAM on strand 1, blunt) turned out to be 139 ± 17.2 nM. For the molecule ACTGGACAAATACTCCGAGG (mixed, 3'-terminal A18 G19 G20 are ribonucleotides; positions 1-17 DNA) [ssDNA17+RNA3 (ss17D3R)], the Kd in data set [3] is ~39.6 µM. Regarding ACUGGACAAAUACUCCGAGG (ssRNA) [ssRNA20], the Kd in data set [4] is ~59 µM.

B3: DNA/RNA hybrid 20 bp (DNA:RNA)
DNA: ACTGGACAAATACTCCGAGG
RNA: CCUCGGAGUAUUUGUCCAGU
In the case of B3, the Kd in data set [2] (blunt) was found to be 102 ± 8 nM. For ACTGGACAAATACTCCGAGG (ssDNA) [ssDNA20], in data set [2] (label: 5'-FAM, single strand), the dissociation constant Kd came to 77.7 ± 6 nM.
